# Assay results taken from publication PMC11661314 (bioRxiv, 2024).
# T1: E. coli (UTI89) FimH lectin domain truncate (Escherichia coli UTI89, strain)
# T1 chain: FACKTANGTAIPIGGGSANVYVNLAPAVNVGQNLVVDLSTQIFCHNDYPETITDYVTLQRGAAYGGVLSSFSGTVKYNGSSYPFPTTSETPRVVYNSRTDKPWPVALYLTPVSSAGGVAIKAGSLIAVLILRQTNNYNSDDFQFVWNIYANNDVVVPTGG
# T2: K. pneumoniae (TOP52) FimH lectin domain truncate (Klebsiella pneumoniae TOP52, strain)
# T2 chain: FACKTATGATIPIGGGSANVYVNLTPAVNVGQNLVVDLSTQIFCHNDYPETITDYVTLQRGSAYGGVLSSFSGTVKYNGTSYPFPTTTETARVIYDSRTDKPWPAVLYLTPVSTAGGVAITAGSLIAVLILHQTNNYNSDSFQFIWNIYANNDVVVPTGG
# T3: E. coli FmlH lectin domain (Escherichia coli UTI89 (strain from PDB …))
# T3 chain: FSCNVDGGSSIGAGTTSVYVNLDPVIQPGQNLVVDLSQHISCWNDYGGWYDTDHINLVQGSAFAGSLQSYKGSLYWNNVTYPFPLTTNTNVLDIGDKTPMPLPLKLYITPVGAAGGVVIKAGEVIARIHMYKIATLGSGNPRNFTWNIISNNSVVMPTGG
# Columns and labels:
# Test in all cases: ELISA
# [1] = molecular target: T1, E. coli (UTI89) FimH lectin domain …
# [2] = molecular target: T2, K. pneumoniae (TOP52) FimH lectin …
# [3] = molecular target: T3, E. coli FmlH lectin domain
Binder,binding result [1],binding result [2],binding result [3]
"Ec3 B7 mAb (chimeric murine/human IgG) (antibody, V domains shown) VH: EVQLQQPGAELVRPGASVKMSCKASGYTFTIYNLHWVKQTPRQGLEWIGTIYPGDGDTSYNQKFKGKATLTVDKSSSTAYMQLSNLTSEDSAVYFCAREGDYGPWFAYWGQGTLVTVSA VL: QIVLTQSPAIMSASPGEKVTMTCRASSSVSSSYLHWYQQKSGASPKLWIYSSSNLASGVPARFSGSGSGTSYSLTINSVEAEDAATYYCQHYGSYPLTFGGGTKLEIK",binds,–,–
"Kp1 2H04 mAb (chimeric murine/human IgG) (antibody, V domains shown) VH: EVQLQQSGAELVKPGASVKLSCKASGYTFTSYWMHWVKQRPGQGLEWIGLIHPNSSSTYYNEKFKTRATLTVDKSSSTAYMQLSSLTSEDSAVYYCARLGYGNSYWYFDVWGTGTTVTVSS VL: QIVLTQSPALMAASPGEKVTITCSVSSSISSSNLHWYQQKSETSPKPWIYGTSNLASGVPIRFSGSGSGTSYSLTISSLEAEDAATYYCQQWRSYPWTFGGGTKLEIK",binds,binds,–
"Ec1 F7 mAb (chimeric murine/human IgG) (antibody, V domains shown) VH: EVQLQQPGPVLVKPGPSVKISCKASGFTFTDYFIHWVKQSHGKSLEWIGLVSPYNGGTYYNQQFKGKATLTVDTSSSTAYMDLNSLTSEDSAVYYCTRLLRGYWYFDVWGTGTTVTVSS VL: QIVLTQSPALMAASPGEKVTITCSVSSSIGSSNLHWYQQKSETSPKPWIYGTSNLASGVPVRFSGSGSGTSYSLTISSMEAEDAATYYCQQWSTYPYTFGGGTKLEIK",binds,binds,–
"Kp2 2C07 mAb (chimeric murine/human IgG) (antibody, V domains shown) VH: EVKLVESGEGLVKPGGSLKLSCAASGFTFSSYAMSWVRQTPEKRLDWVAYISSGGDHIYYADTVKGRFTISRDNARNTLYLQMSSLKSEDTAMYYCTRDTGYYVSRYFDVWGTGTTVTVSS VL: DIVMTQSQKFMSTSVGDRVSVTCKASQNVVTNVAWYQQKSGQSPKVVIYSASFRSSGVPDRFTGSGSGTDFTLTISNVQSEDLAEYFCHQYNSHPLTFGGGTKLEIK",binds,binds,no binding
